Source: patent publication US20230120018A1, “PREDICTION OF PEPTIDE CLEAVAGE IN POLYPEPTIDES THROUGH PHYSICS-BASED SIMULATIONS” (Genentech, Inc., priority 2020, published 2023)

B1: otlertuzumab (antibody, chains of the INN, looked up, V domains shown)
VH: EVQLVQSGAEVKKPGESLKISCKGSGYSFTGYNMNWVRQMPGKGLEWMGNIDPYYGGTTYNRKFKGQVTISADKSISTAYLQWSSLKASDTAMYYCARSVGPFDSWGQGTLVTVSS
VL: EIVLTQSPATLSLSPGERATLSCRASENVYSYLAWYQQKPGQAPRLLIYFAKTLAEGIPARFSGSGSGTDFTLTISSLEPEDFAVYYCQHHSDNPWTFGQGTKVEIK

Assays:
[1] = Asn-Pro hydrolysis in unstructured linear peptide mimics of CDR-L3 at accelerated temperature; assay type: physicochemical; details: pH 7.4, 90° C.
Procedure: To examine the effect of antibody structure on the rate of Asn-Pro hydrolysis, thermal stress was performed on unstructured, linear peptides representing the CDR-L3 sequence of Fab1 and Mab3. Since it had been previously shown that the rate of hydrolysis in unstructured peptides incubated at 37° C. was slow, accelerated temperature conditions (90 and 70° C.) were performed and the temperature dependence extrapolated to calculate the rate at 37° C. Very slow rates of peptide hydrolysis (Table 2), with half-lives calculated for 37° C. of greater than 2000 days, were observed. As expected, the rate of hydrolysis was slower, by about 3-fold, for incubations performed in pH 5 buffer.

[2] = Neutral pH 37 C stability of commercial antibodies, fragmentation by mass spectroscopy and CE-SDS; assay type: physicochemical; details: PBS pH 7.4, up to 4 weeks at 37° C.
Procedure: In addition to the data shown for Mab5 in Table 1 and FIG. 9, neutral pH, 37 C stability data was generated for all except muromonab, teplizumab, tovetumab, and visilizumab. Antibodies formulated in PBS, pH 7.4, were incubated for up to 4 weeks at 37° C. and evidence for fragmentation was obtained by mass spectroscopy and capillary electrophoresis sodium dodecyl sulfate (CE-SDS) for both intact and reduced samples.

Molecule | % Pro peak formation/day at 90° C. [1] [% Pro peak formation/day] | Light chain fragment observed? (hydrolysis at Asn-Pro in CDR-L3) [2]
Fab1: peptide mimic of Fab1 CDR-L3 segment, QQWSSNPWTFGQ | 1.0 | 
Fab2: peptide mimic of Fab2 CDR-L3 segment, QQGYGNPFTFGQ | 2.9 | 
Mab3: peptide mimic of Mab3 CDR-L3 segment, QQWSSNPYTFGQ | 2.9 | 
Mab4: peptide mimic of Mab4 CDR-L3 segment, QQGINNPLTFGQ | 1.9 | 
veltuzumab [reference compound] |  | detected and Yes
B1 |  | not and No
